# Test results reported in the supplement of paper PMC9112550, “Optimization of the antimicrobial peptide Bac7 by deep mutational scanning” (BMC Biology, 2022).
# Tested on: Escherichia coli TOP10
# Assay: shrunken log2 fold change of peptide-encoding DNA abundance (4.5 h post-induction vs induction); higher = less antimicrobial activity (less host growth inhibition)
# Conditions: time post-induction: 4.5 h; library: site-saturation at positions 5, 18, 19, 20
# 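Also: peptides expressed intracellularly from a pBAD plasmid library in pooled LB shake-flask culture, induced with 0.3% L-arabinose, DNA abundance read by NGS, three biological replicates, DESeq2 with apeglm shrinkage.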
row,Sequence,shrunken log2 fold change
1,RRIRWRPPRLPRPRPRPWSKPRP,-0.191
2,RRIRTRPPRLPRPRPRPGGQPRP,0.585
3,RRIRHRPPRLPRPRPRPMISPRP,-0.442
4,RRIRARPPRLPRPRPRPAPSPRP,0.787
5,RRIRERPPRLPRPRPRPGQIPRP,0.0685
6,RRIRKRPPRLPRPRPRPFSCPRP,-0.122
7,RRIRCRPPRLPRPRPRPHITPRP,-0.704
8,RRIRVRPPRLPRPRPRPYKEPRP,0.0231
9,RRIRFRPPRLPRPRPRPPLFPRP,0.273
10,RRIRWRPPRLPRPRPRPAIHPRP,0.039
11,RRIRTRPPRLPRPRPRPQQVPRP,-0.231
12,RRIRLRPPRLPRPRPRPKKCPRP,-0.198
13,RRIRVRPPRLPRPRPRPLTIPRP,-0.329
14,RRIRRRPPRLPRPRPRPINYPRP,-0.196
15,RRIRKRPPRLPRPRPRPRVIPRP,0.0832
16,RRIRKRPPRLPRPRPRPNPDPRP,0.383
17,RRIRLRPPRLPRPRPRPIAKPRP,-0.305
18,RRIRGRPPRLPRPRPRPCQIPRP,-0.0259
19,RRIRPRPPRLPRPRPRPYIHPRP,-0.946
20,RRIRQRPPRLPRPRPRPGILPRP,-0.181
21,RRIRTRPPRLPRPRPRPACLPRP,-0.217
22,RRIRCRPPRLPRPRPRPVQYPRP,-0.203

row,Sequence,shrunken log2 fold change
1,RRIRPRPPRLPRPRPRPQGCPRP,-0.0849
2,RRIRPRPPRLPRPRPRPGNQPRP,-0.143
3,RRIRGRPPRLPRPRPRPWLMPRP,0.428
4,RRIRGRPPRLPRPRPRPHFSPRP,-0.115
5,RRIRVRPPRLPRPRPRPIVTPRP,-0.214
6,RRIRLRPPRLPRPRPRPAIGPRP,-0.00988
7,RRIRYRPPRLPRPRPRPRKLPRP,-0.14
8,RRIRQRPPRLPRPRPRPVIAPRP,0.248
9,RRIRGRPPRLPRPRPRPKGLPRP,0.016
10,RRIRGRPPRLPRPRPRPDVQPRP,1.69
11,RRIRMRPPRLPRPRPRPMHSPRP,0.126
12,RRIRARPPRLPRPRPRPHYIPRP,-0.296
13,RRIRTRPPRLPRPRPRPNLNPRP,-0.55
14,RRIRDRPPRLPRPRPRPTVHPRP,0.231
15,RRIRRRPPRLPRPRPRPIHNPRP,-0.329
16,RRIRWRPPRLPRPRPRPGWVPRP,0.224
17,RRIRVRPPRLPRPRPRPYYTPRP,-1.39
18,RRIRSRPPRLPRPRPRPLLTPRP,0.085
19,RRIRVRPPRLPRPRPRPLFAPRP,0.477
20,RRIRIRPPRLPRPRPRPEIGPRP,-0.0838
21,RRIRERPPRLPRPRPRPCMHPRP,-0.0148
22,RRIRHRPPRLPRPRPRPPLEPRP,0.223

row,Sequence,shrunken log2 fold change
1,RRIRWRPPRLPRPRPRPPSIPRP,0.357
2,RRIRWRPPRLPRPRPRPCMDPRP,-0.18
3,RRIRCRPPRLPRPRPRPNMAPRP,-0.614
4,RRIRNRPPRLPRPRPRPKYIPRP,-0.667
5,RRIRNRPPRLPRPRPRPMYKPRP,0.0573
6,RRIRDRPPRLPRPRPRPIIKPRP,-0.0129
7,RRIRARPPRLPRPRPRPPGVPRP,0.158
8,RRIRGRPPRLPRPRPRPHCRPRP,0.376
9,RRIRGRPPRLPRPRPRPPAIPRP,0.859
10,RRIRKRPPRLPRPRPRPDCRPRP,-0.00777
11,RRIRYRPPRLPRPRPRPRTPPRP,-0.149
12,RRIRIRPPRLPRPRPRPDRFPRP,0.0544
13,RRIRVRPPRLPRPRPRPICIPRP,-0.449
14,RRIRKRPPRLPRPRPRPNHIPRP,-0.358
15,RRIRPRPPRLPRPRPRPWIQPRP,0.0178
16,RRIRYRPPRLPRPRPRPWLIPRP,-0.204
17,RRIRVRPPRLPRPRPRPEMFPRP,-0.0822
18,RRIRYRPPRLPRPRPRPYFPPRP,-0.702
19,RRIRGRPPRLPRPRPRPYVVPRP,-0.0656
20,RRIRDRPPRLPRPRPRPIRHPRP,-0.0425
21,RRIRMRPPRLPRPRPRPGHQPRP,0.568
22,RRIRIRPPRLPRPRPRPIQLPRP,-0.058

row,Sequence,shrunken log2 fold change
1,RRIRMRPPRLPRPRPRPAEPPRP,0.449
2,RRIRPRPPRLPRPRPRPWNQPRP,-0.759
3,RRIRRRPPRLPRPRPRPKCGPRP,0.0229
4,RRIRARPPRLPRPRPRPFCRPRP,0.211
5,RRIRQRPPRLPRPRPRPCWYPRP,-0.261
6,RRIRSRPPRLPRPRPRPGWNPRP,0.0897
7,RRIRIRPPRLPRPRPRPEINPRP,-0.993
8,RRIRWRPPRLPRPRPRPCFSPRP,-0.176
9,RRIRMRPPRLPRPRPRPQKLPRP,0.0146
10,RRIRYRPPRLPRPRPRPNGWPRP,-0.0316
11,RRIRVRPPRLPRPRPRPFKEPRP,0.121
12,RRIRIRPPRLPRPRPRPYVQPRP,-0.311
13,RRIRVRPPRLPRPRPRPLNLPRP,-0.304
14,RRIRARPPRLPRPRPRPCNMPRP,-0.253
15,RRIRDRPPRLPRPRPRPGFRPRP,0.248
16,RRIRHRPPRLPRPRPRPFLAPRP,-0.336
17,RRIRHRPPRLPRPRPRPSIGPRP,-0.335
18,RRIRARPPRLPRPRPRPHGWPRP,0.184
19,RRIRYRPPRLPRPRPRPMWKPRP,-0.00663
20,RRIRERPPRLPRPRPRPHCMPRP,-0.235
21,RRIRGRPPRLPRPRPRPFTIPRP,-0.0307
22,RRIRDRPPRLPRPRPRPMYEPRP,0.183

row,Sequence,shrunken log2 fold change
1,RRIRERPPRLPRPRPRPFWFPRP,-0.303
2,RRIRVRPPRLPRPRPRPVNHPRP,-0.306
3,RRIRRRPPRLPRPRPRPDYDPRP,-0.0449
4,RRIRIRPPRLPRPRPRPPWVPRP,0.0988
5,RRIRRRPPRLPRPRPRPTSWPRP,1.52
6,RRIRIRPPRLPRPRPRPYILPRP,-0.463
7,RRIRYRPPRLPRPRPRPQMSPRP,-0.0435
8,RRIRARPPRLPRPRPRPYRIPRP,0.11
9,RRIRFRPPRLPRPRPRPHICPRP,-0.0238
10,RRIRARPPRLPRPRPRPMPCPRP,0.535
11,RRIRTRPPRLPRPRPRPIQMPRP,-0.286
12,RRIRTRPPRLPRPRPRPKVCPRP,-0.00594
13,RRIRTRPPRLPRPRPRPACHPRP,0.049
14,RRIRLRPPRLPRPRPRPHHGPRP,-0.0757
15,RRIRRRPPRLPRPRPRPHWEPRP,0.127
16,RRIRARPPRLPRPRPRPECDPRP,1.12
17,RRIRERPPRLPRPRPRPQLDPRP,0.115
18,RRIRSRPPRLPRPRPRPVSMPRP,0.0888
19,RRIRDRPPRLPRPRPRPWFSPRP,-0.317
20,RRIRRRPPRLPRPRPRPAWRPRP,0.504
21,RRIRGRPPRLPRPRPRPILTPRP,0.351
